{"source": "patent US20040197334A1", "about": "(TECHNION RESEARCH AND DEVELOPMENT FOUNDATION, published 2004)", "binders": {"B1": {"name": "A2 single-chain Fv (scFv) (scFv)", "scFv": "QVQLQQSGPDLVKPGASVKISCKASGYSFTGYYMHWVKQSHGKSLEWIGRANPNNGGTSYNQKFKGKAILTVDKSSSTAYMELRSLTSEDSAVYYCARWDGAYWGQGTLVTVSSGGGGSGGGGSGGGGSDVVMTQTPLSLPVSLGDQASISCRSSQSIVHSNGNTYLEWYLQKPGQSPKLLIYKVSNRFSGVPDRFSGSGSGTDFTLKISRVEAEDLGVYYCFQGSHVPFTFGSGTKLELKEQKLISEEDLNHHHHHH", "notes": "Soluble monomeric scFv of about 30 kDa, expressed in E. coli BL21 and purified from the periplasm; In the radioimmunoassay the tracer was labeled with 125I by the Bolton-Hunter reagent; also called A2 scFv; A2 scFv antibody"}}, "key": {"[1]": {"molecular_target": "T1, human P-glycoprotein (Pgp), 170 kDa, encoded by the mdr1 gene, on the surface of MDR human carcinoma cells … (human, UniProt P08183 1-1280)", "T1 construct": "whole, on cells; Overexpressed on the MDR cell lines 2780^ADR (ovarian carcinoma) and KBV-1 (epidermoid carcinoma); also called human cell surface-expressed Pgp", "T1 sequence (P08183 whole entry)": "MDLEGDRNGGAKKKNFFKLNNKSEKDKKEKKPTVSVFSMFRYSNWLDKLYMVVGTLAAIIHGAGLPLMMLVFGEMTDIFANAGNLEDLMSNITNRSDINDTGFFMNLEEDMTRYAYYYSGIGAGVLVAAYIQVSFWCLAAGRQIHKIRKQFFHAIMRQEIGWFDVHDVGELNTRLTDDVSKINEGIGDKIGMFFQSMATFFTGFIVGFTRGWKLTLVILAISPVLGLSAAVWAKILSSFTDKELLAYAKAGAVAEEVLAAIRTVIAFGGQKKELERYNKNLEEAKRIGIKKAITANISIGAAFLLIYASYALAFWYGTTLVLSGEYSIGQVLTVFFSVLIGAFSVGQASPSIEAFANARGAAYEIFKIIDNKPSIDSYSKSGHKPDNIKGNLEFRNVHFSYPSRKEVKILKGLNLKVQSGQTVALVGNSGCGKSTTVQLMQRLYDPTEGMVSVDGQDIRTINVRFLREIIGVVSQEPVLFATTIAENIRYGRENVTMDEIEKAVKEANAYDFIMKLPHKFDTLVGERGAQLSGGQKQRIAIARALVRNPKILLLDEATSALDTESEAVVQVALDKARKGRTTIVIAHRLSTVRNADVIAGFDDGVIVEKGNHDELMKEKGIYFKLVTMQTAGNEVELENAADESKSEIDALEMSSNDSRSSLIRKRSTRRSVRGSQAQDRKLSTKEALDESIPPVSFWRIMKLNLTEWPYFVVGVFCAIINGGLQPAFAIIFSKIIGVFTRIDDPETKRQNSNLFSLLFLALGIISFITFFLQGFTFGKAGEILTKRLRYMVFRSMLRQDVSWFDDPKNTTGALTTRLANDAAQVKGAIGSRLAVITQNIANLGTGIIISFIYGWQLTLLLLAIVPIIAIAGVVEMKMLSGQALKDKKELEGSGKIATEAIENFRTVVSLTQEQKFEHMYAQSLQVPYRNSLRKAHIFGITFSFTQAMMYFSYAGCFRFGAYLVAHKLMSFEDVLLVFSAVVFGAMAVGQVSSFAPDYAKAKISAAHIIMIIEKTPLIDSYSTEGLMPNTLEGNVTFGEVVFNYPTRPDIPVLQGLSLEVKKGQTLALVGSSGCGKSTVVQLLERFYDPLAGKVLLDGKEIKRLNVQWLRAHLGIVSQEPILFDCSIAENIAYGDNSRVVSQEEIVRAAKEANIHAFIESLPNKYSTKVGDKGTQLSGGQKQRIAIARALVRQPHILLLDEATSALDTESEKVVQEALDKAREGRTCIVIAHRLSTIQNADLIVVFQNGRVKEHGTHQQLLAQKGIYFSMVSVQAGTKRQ", "assay": "flow cytometry on MDR, Pgp-overexpressing 2780^ADR cells, A2 scFv 50 µg/ml"}, "[2]": {"molecular_target": "T2, biotinylated target Pgp-derived peptide having the amino acid sequence of SEQ ID NO:1 (GEMTDIFANAGNL) (human, also: biotinylated, position not given here)", "T2 construct": "also called target peptide", "T2 peptide": "GEMTDIFANAGNL", "assay": "saturation ELISA on plate-bound biotinylated peptide; the filing calls the value the affinity constant"}, "[3]": {"molecular_target": "T1, human P-glycoprotein (Pgp), 170 kDa, …", "assay": "cell-based or functional assay"}, "streptavidin": {"molecular_target": "streptavidin (UniProt P22629 37-163)", "sequence (P22629 37-163 limits assumed)": "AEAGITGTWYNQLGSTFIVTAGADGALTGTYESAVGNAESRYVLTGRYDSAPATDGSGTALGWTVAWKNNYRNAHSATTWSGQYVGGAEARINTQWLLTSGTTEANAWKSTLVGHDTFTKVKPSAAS", "assay": "ELISA, FIG. 1b"}, "[4]": {"molecular_target": "T2, biotinylated target Pgp-derived peptide …", "assay": "competition radioimmunoassay, cold A2 scFv against [125I]-labeled A2 scFv on plate-bound peptide; the filing calls the value the affinity constant"}}, "note": "“And” between values parts separate entries of the source, which are not always exact repeats. Equal entries are not always repeated. No end group written: not given here.", "data": [{"binder": "B1", "values": [{"measurement": "fold increase in fluorescent intensity", "setting": "[1]", "result": 10, "unit": "fold"}, {"measurement": "EC50", "setting": "[2]", "result": "~150", "unit": "nM"}, {"measurement": "concentration of A2 scFv that inhibits 50% drug-efflux activity (IC50), calcein accumulation in 2780^ADR cells", "setting": "[3]", "result": "~65 µg/ml and ~2.6 µM"}, {"measurement": "binding result", "setting": "streptavidin", "result": "no binding"}, {"measurement": "IC50", "setting": "[4]", "result": "~130", "unit": "nM"}]}]}
